Values quoted from earlier work in publication PMC7076691.

Molecular target: Bfd (Pseudomonas aeruginosa) (UniProt Q9HY80)
UniProt Q9HY80, sequence (Q9HY80 whole entry): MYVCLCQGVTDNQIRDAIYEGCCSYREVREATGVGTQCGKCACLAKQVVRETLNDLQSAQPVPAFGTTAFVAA

## BfrB (from UniProt Q9HY79)
  Kd: 3000 nM
